This note sets out measurements from PMC3234718.

Test in all cases: SPR
Test [1] concerns the target C-propeptide trimer of human procollagen III (CPIII) (human) (UniProt P02461).
A further test deals with CPIII-His (human) (UniProt P02461).
Test [2] deals with mini-procollagen III N306Q (human).

In the case of “CUB1-CUB2 (minimal active fragment of PCPE-1) (domain or fragment)”, the KD(1) (heterogeneous ligand model, site 1) in test [1] amounted to 4.6 nM; in the test with CPIII-His (human) it was 12.8 nM; in test [2], 0.74 nM. For the same molecule, the results for the KD(2) (heterogeneous ligand model, site 2) (in test [1]; with CPIII-His (human); in test [2]) were 28 nM, 27 nM and 12.6 nM, respectively.

B1: procollagen C-proteinase enhancer-1 (PCPE-1) (natural protein)
chain: QTPNYTRPVFLCGGDVKGESGYVASEGFPNLYPPNKECIWTITVPEGQTVSLSFRVFDLELHPACRYDALEVFAGSGTSGQRLGRFCGTFRPAPLVAPGNQVTLRMTTDEGTGGRGFLLWYSGRATSGTEHQFCGGRLEKAQGTLTTPNWPESDYPPGISCSWHIIAPPDQVIALTFEKFDLEPDTYCRYDSVSVFNGAVSDDSRRLGKFCGDAVPGSISSEGNELLVQFVSDLSVTADGFSASYKTLPRGTAKEGQGPGPKRGTEPKVKLPPKSQPPEKTEESPSAPDAPTCPKQCRRTGTLQSNFCASSLVVTATVKSMVREPGEGLAVTVSLIGAYKTGGLDLPSPPTGASLKFYVPCKQCPPMKKGVSYLLMGQVEENRGPVLPPESFVVLHRPNQDQILTNLSKRKCPSQPVRAAASQD
B1: the KD(1) (heterogeneous ligand model, site 1) in test [1] was determined as 4.7 nM; with CPIII-His (human) it was 5.9 nM; in test [2] it was 0.66 nM. In addition, the KD(2) (heterogeneous ligand model, site 2) in test [1] is 17 nM; with CPIII-His (human), 15 nM; in test [2] it was 10 nM.
